The target in assay [1] is HLA-DR, human (human). The assay is described as follows: Scatchard plot analysis, avidity constant on tonsil lymphocytes.
Assay [2] deals with HLA-DR, human (human). The assay is described as follows: Scatchard plot analysis, avidity constant on tumor cell line (ARH-77 myeloma cells).
The target in assay [3] is HLA-DR, human (human). The assay is described as follows: Scatchard analysis, normal B cells (Table 11: tonsil lymphocytes) compared with ARH-77 tumor cells.
In assay [4] the target is HLA-DR, human (human). The assay is described as follows: Scatchard analysis, normal B cells (Table 11: tonsil lymphocytes) compared with Raji tumor cells.
In assay [5] the target is HLA-DR, human (human). The assay is described as follows: Scatchard plot analysis, avidity constant on tumor cell line (Raji cells).

B1: Lym-2 (antibody, V domains shown)
VH: EVQLEESGGGLVQPGGSMKLSCVASGFTFSNYWMNWVRQSPEKGLEWVAEIRFKSHNYATHFAESVKGRFTISRDDSKSSVYLQMNNLRAEDTGIYYCTRRIGNSDYDWWYFDVWGAGTSVTVSS
VL: DIVMTQSHKFMSTSVGDRVSVTCKASQNVGNNVAWYQQKPGQSPKVLIYSASYRYSGVPDRFTGSGSGTDFTLTISNVQSEDLAEYFCQQYNTYPFTFGSGTKLEIK
B1: the Ka with HLA-DR, human [1] was 1.23e+08 M⁻¹; in the assay with HLA-DR, human [2] it was 2.33e+08 M⁻¹. Moreover, the “fold decrease in binding affinity (normal B cells against tumor cells)” value in the assay with HLA-DR, human [3] turned out to be 2 fold.

B2: Lym-1 (antibody, V domains shown)
VH: QLKESGPGLVAPSQSLSITCTISGFSLTSYGVHWVRQPPGKGLEWLVVIWSDGSTTYNSALKSRLSISKDNSKSQVFLKMNSLQTDDTAIYYCASHYGSTLAFASWGHGTLVTVSA
VL: DIQMTQSPASLSASVGETVTIICRASVNIYSYLAWYQQKQGKSPQLLVYNAKILAEGVPSRFSGSGSGTQFSLKINSLQPEDFGSYYCQHHYGTFTFGSGTKLEIK
For B2, the Ka in the assay with HLA-DR, human [1] was found to be 8.8e+07 M⁻¹; with HLA-DR, human [5], 4.02e+08 M⁻¹. Further, the “fold decrease in binding affinity (normal B cells against tumor cells)” value in the assay with HLA-DR, human [4] was found to be 4 fold.

Values taken from EP3515493A1 (dated 2019).
